From article PMC7859452, “A Dimerization Site at SCR-17/18 in Factor H Clarifies a New Mechanism for Complement Regulatory Control” (Frontiers in Immunology, 2020)

B1: Complement Factor H SCR-18/20 fragment (domain or fragment)
chain: TSCVNPPTVQNAYIVSRQMSKYPSGERVRYQCRSPYEMFGDEEVMCLNGNWTEPPQCKDSTGKCGPPPPIDNGDITSFPLSVYAPASSVEYQCQNLYQLEGNKRITCRNGQWSEPPKCLHPCVISREIMENYNIALRWTAKQKLYSRTGESVEFVCKRGYRLSSRSHTLRTTCWDGKLEYPTCAKR
modifications: N-linked glycan chain on SCR-18
B2: Complement Factor H SCR-16/18H fragment (domain or fragment)
chain: GLPCKSPPEISHGVVAHMSDSYQYGEEVTYKCFEGFGIDGPAIAKCLGEKWSHPPSCIKTDCLSLPSFENAIPMGEKKDVYKAGEQVTYTCATYYKMDGASNVTCINSRWTGRPTCRDTSCVNPPTVQNAYIVSRQMSKYPSGERVRYQCRSPYEMFGDEEVMCLNGNWTEPPQCKDST
modifications: N-linked glycan chains on SCR-17 and SCR-18
B3: Complement Factor H SCR-18H fragment (domain or fragment)
chain: TSCVNPPTVQNAYIVSRQMSKYPSGERVRYQCRSPYEMFGDEEVMCLNGNWTEPPQCKDST
modifications: also: N-linked glycan chain, site not given here
B4: Complement Factor H SCR-16/20 fragment (domain or fragment)
chain: GLPCKSPPEISHGVVAHMSDSYQYGEEVTYKCFEGFGIDGPAIAKCLGEKWSHPPSCIKTDCLSLPSFENAIPMGEKKDVYKAGEQVTYTCATYYKMDGASNVTCINSRWTGRPTCRDTSCVNPPTVQNAYIVSRQMSKYPSGERVRYQCRSPYEMFGDEEVMCLNGNWTEPPQCKDSTGKCGPPPPIDNGDITSFPLSVYAPASSVEYQCQNLYQLEGNKRITCRNGQWSEPPKCLHPCVISREIMENYNIALRWTAKQKLYSRTGESVEFVCKRGYRLSSRSHTLRTTCWDGKLEYPTCAKR
modifications: N-linked glycan chains on SCR-17 and SCR-18
B5: Complement Factor H SCR-17H fragment (domain or fragment)
chain: TDCLSLPSFENAIPMGEKKDVYKAGEQVTYTCATYYKMDGASNVTCINSRWTGRPTCRDTS
modifications: also: N-linked glycan chain, site not given here
B6: Complement Factor H SCR-17/18H fragment (domain or fragment)
chain: TDCLSLPSFENAIPMGEKKDVYKAGEQVTYTCATYYKMDGASNVTCINSRWTGRPTCRDTSCVNPPTVQNAYIVSRQMSKYPSGERVRYQCRSPYEMFGDEEVMCLNGNWTEPPQCKDST
modifications: N-linked glycan chains on SCR-17 and SCR-18

How the values were obtained:
[1] = target: the molecule itself; assay: AUC; sedimentation velocity, c(s) size distribution (SEDFIT), 50,000 rpm, 20 °C, 10 mM Hepes pH 7.4, 50 mM NaCl (low salt control; data not shown); KD of dimer to monomers from integration of the c(s) peaks
[2] = target: the molecule itself; assay: AUC; sedimentation velocity, c(s) size distribution (SEDFIT), 50,000 rpm, 20 °C, 10 mM Hepes pH 7.4, 137 mM NaCl, concentration series 0.2 – 3 mg/ml; KD of dimer to monomers from integration of the c(s) peaks

Protein | Kd [1] [µM] | stoichiometry N [1] | Kd [2] [µM] | percent dimer [1] [%] | percent dimer [2] [%] | stoichiometry N [2]
B1 | 180 ± 130 | 2 | 590 ± 150 |  |  | 
B2 | ~10 |  | 6 ± 5 | 50 | 60 | 2
B3 | ~60 | 2 | 37 ± 27 |  | ~50 | 
B4 | 90 ± 20 | 2 | 31 ± 14 |  | 40 | 
B5 |  | 2 | 5 ± 4 |  | 80 | 
B6 | 2 ± 1 |  | 3 ± 1 |  | 80 | 2
